The text below walks through data of patent publication US20220010021A1 (Sanofi, published 2022).

Assay [1] addresses cell surface receptor composed of the tyrosine kinase receptor FGFR1c and co-receptor beta-Klotho (KLB) (human, UniProt P11362 22-822; Q86Z14 1-1044). The experiment in a line: cell-based or functional assay.
Assay [2] deals with T1, beta-Klotho (KLB) (Homo sapiens (Human), UniProt Q86Z14 1-996).
T1 construct: also called β-Klotho; not shown: C-terminal His tag of the bought R&D Systems protein
T1 sequence: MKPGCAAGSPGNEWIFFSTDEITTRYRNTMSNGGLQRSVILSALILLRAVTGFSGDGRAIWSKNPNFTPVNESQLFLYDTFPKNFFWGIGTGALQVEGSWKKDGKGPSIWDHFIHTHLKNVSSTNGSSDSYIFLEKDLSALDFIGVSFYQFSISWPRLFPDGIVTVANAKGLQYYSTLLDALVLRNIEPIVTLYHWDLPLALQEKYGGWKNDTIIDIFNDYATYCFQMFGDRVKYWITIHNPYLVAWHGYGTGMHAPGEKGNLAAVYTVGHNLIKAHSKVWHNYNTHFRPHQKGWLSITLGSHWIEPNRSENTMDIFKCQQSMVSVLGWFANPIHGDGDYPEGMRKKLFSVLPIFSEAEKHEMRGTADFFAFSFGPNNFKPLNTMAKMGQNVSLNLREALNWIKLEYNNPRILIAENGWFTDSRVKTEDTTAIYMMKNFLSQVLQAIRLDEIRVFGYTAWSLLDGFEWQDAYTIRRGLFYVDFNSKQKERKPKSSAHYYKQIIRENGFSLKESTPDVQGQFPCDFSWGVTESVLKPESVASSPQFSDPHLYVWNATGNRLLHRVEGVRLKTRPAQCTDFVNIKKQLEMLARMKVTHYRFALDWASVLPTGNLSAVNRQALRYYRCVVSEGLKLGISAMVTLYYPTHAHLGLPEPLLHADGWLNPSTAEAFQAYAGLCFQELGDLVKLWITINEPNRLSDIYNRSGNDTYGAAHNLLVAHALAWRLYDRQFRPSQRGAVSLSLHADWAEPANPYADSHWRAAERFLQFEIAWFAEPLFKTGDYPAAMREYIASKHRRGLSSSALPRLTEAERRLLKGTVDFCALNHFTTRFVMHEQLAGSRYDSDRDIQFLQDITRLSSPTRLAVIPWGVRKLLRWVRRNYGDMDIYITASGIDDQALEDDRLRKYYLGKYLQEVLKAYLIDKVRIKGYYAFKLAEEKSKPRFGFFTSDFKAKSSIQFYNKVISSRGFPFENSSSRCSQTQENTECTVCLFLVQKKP
The experiment in a line: BLI (Octet) off-rate screening, mAb from supernatant on anti-hIgG Fc sensor, 5 nmol/L KLB.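 Further: dissociation followed for 1800 s in D-PBS plus 0.1% BSA, antibody supernatants applied at 25 µg/mL.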

cell surface receptor composed of the tyrosine kinase receptor FGFR1c and co-receptor beta-Klotho (KLB), sequence (P11362 22-822, one chain of several): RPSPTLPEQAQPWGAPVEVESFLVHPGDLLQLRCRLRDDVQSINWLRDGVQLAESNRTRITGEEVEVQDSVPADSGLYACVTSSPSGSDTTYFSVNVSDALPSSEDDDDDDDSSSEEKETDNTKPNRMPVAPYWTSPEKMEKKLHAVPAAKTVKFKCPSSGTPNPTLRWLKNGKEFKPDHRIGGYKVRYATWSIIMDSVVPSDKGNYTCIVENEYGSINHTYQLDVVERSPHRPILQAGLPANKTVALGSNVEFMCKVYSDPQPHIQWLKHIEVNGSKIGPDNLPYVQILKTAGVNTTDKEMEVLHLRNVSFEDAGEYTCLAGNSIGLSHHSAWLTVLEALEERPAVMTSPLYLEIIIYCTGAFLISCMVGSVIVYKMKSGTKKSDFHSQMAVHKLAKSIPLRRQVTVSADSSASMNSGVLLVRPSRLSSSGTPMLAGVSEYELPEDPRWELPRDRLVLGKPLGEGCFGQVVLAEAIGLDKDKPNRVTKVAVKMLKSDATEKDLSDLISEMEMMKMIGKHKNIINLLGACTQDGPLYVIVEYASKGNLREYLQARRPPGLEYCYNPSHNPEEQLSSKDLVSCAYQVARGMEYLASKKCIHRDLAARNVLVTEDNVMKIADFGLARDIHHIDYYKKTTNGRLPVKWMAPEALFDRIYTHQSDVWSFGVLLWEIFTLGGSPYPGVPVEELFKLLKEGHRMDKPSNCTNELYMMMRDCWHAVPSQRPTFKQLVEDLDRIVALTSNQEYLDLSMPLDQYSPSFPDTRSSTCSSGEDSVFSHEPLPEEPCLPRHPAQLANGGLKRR

B1: 16H7 variant with light chain substitution S94G (antibody, human IgG4 S228P, lambda, V domains shown)
VH: not shown
VL: SYVLTQPPSVSVAPGQTARITCGGNNIGSESVHWYQQKPGQAPVLVVYDDSDRPSGIPERFSGSNSGNTATLTISRVEAGDEADYYCQVWDGNGDHVVFGGGTKLTVLG
notes: IgG4 backbone was used
B1: in assay [1], the “Mean E max, Luciferase gene reporter assay” value (from here on “Mean E max”) was determined as 100% and the “Mean EC50, Luciferase gene reporter assay” value (“Mean EC50” for short) was found to be 0.146 nM. Besides, in assay [2], the koff came out at 6.8e-05 s⁻¹.

B2: 16H7 variant with light chain substitution H96D (antibody, human IgG4 S228P, lambda, V domains shown)
VH: not shown
VL: SYVLTQPPSVSVAPGQTARITCGGNNIGSESVHWYQQKPGQAPVLVVYDDSDRPSGIPERFSGSNSGNTATLTISRVEAGDEADYYCQVWDGNSDDVVFGGGTKLTVLG
notes: IgG4 backbone was used
Regarding B2, in assay [1], the “Mean E max” value came to 100% and the “Mean EC50” value amounted to 0.111 nM. Further, the koff in assay [2] amounted to 2.2e-05 s⁻¹.

B3: 16H7 variant with light chain substitution D95H (antibody, human IgG4 S228P, lambda, V domains shown)
VH: not shown
VL: SYVLTQPPSVSVAPGQTARITCGGNNIGSESVHWYQQKPGQAPVLVVYDDSDRPSGIPERFSGSNSGNTATLTISRVEAGDEADYYCQVWDGNSHHVVFGGGTKLTVLG
notes: IgG4 backbone was used
B3: in assay [1], the “Mean E max” value was 33% and the “Mean EC50” value was found to be 29.7 nM. The koff in assay [2] is 8.1e-06 s⁻¹.

B4: 16H7 variant with light chain substitution H96T (antibody, human IgG4 S228P, lambda, V domains shown)
VH: not shown
VL: SYVLTQPPSVSVAPGQTARITCGGNNIGSESVHWYQQKPGQAPVLVVYDDSDRPSGIPERFSGSNSGNTATLTISRVEAGDEADYYCQVWDGNSDTVVFGGGTKLTVLG
notes: IgG4 backbone was used
Consider B4, for which, in assay [1], the “Mean E max” value is 110% and the “Mean EC50” value came to 0.11 nM. In addition, the koff in assay [2] came to 1.8e-05 s⁻¹.

B5: 16H7 variant with light chain substitution H96Q (antibody, human IgG4 S228P, lambda, V domains shown)
VH: not shown
VL: SYVLTQPPSVSVAPGQTARITCGGNNIGSESVHWYQQKPGQAPVLVVYDDSDRPSGIPERFSGSNSGNTATLTISRVEAGDEADYYCQVWDGNSDQVVFGGGTKLTVLG
notes: IgG4 backbone was used
For the molecule B5, in assay [1], the “Mean E max” value came to 104% and the “Mean EC50” value is 0.106 nM. Moreover, the koff in assay [2] came out at 5e-05 s⁻¹.

B6: 16H7 variant with light chain substitution D95A (antibody, human IgG4 S228P, lambda, V domains shown)
VH: not shown
VL: SYVLTQPPSVSVAPGQTARITCGGNNIGSESVHWYQQKPGQAPVLVVYDDSDRPSGIPERFSGSNSGNTATLTISRVEAGDEADYYCQVWDGNSAHVVFGGGTKLTVLG
notes: IgG4 backbone was used
B6: in assay [1], the “Mean E max” value was found to be 12%. The off-rate constant (koff) in assay [2] was determined as 0.0002 s⁻¹.

B7: 16H7 variant with light chain substitution H96S (antibody, human IgG4 S228P, lambda, V domains shown)
VH: not shown
VL: SYVLTQPPSVSVAPGQTARITCGGNNIGSESVHWYQQKPGQAPVLVVYDDSDRPSGIPERFSGSNSGNTATLTISRVEAGDEADYYCQVWDGNSDSVVFGGGTKLTVLG
notes: IgG4 backbone was used
Consider B7, for which, in assay [1], the “Mean E max” value amounted to 102% and the “Mean EC50” value was found to be 0.097 nM. Further, the koff in assay [2] is 3e-05 s⁻¹.

B8: 16H7 variant with light chain substitution H96V (antibody, human IgG4 S228P, lambda, V domains shown)
VH: not shown
VL: SYVLTQPPSVSVAPGQTARITCGGNNIGSESVHWYQQKPGQAPVLVVYDDSDRPSGIPERFSGSNSGNTATLTISRVEAGDEADYYCQVWDGNSDVVVFGGGTKLTVLG
notes: IgG4 backbone was used
B8: in assay [1], the “Mean E max” value turned out to be 91% and the “Mean EC50” value is 0.13 nM. This molecule gave a koff in assay [2] of 4.1e-05 s⁻¹.

B9: 16H7 variant with light chain substitution H96E (antibody, human IgG4 S228P, lambda, V domains shown)
VH: not shown
VL: SYVLTQPPSVSVAPGQTARITCGGNNIGSESVHWYQQKPGQAPVLVVYDDSDRPSGIPERFSGSNSGNTATLTISRVEAGDEADYYCQVWDGNSDEVVFGGGTKLTVLG
notes: IgG4 backbone was used
In the case of B9, in assay [1], the “Mean E max” value worked out at 100% and the “Mean EC50” value was found to be 0.122 nM. In assay [2], this molecule came in with a dissociation rate constant (koff) of 1.1e-05 s⁻¹.

B10: 16H7 variant with light chain substitution N93C (antibody, human IgG4 S228P, lambda, V domains shown)
VH: not shown
VL: SYVLTQPPSVSVAPGQTARITCGGNNIGSESVHWYQQKPGQAPVLVVYDDSDRPSGIPERFSGSNSGNTATLTISRVEAGDEADYYCQVWDGCSDHVVFGGGTKLTVLG
notes: IgG4 backbone was used
For B10, in assay [1], the “Mean E max” value came out at 107% and the “Mean EC50” value amounted to 0.148 nM. The same molecule had a koff in assay [2] of 5.8e-05 s⁻¹.

B11: 16H7 variant with light chain substitution H96L (antibody, human IgG4 S228P, lambda, V domains shown)
VH: not shown
VL: SYVLTQPPSVSVAPGQTARITCGGNNIGSESVHWYQQKPGQAPVLVVYDDSDRPSGIPERFSGSNSGNTATLTISRVEAGDEADYYCQVWDGNSDLVVFGGGTKLTVLG
notes: IgG4 backbone was used
On to B11, for which, in assay [1], the “Mean E max” value was 98% and the “Mean EC50” value was 0.176 nM. Besides, the koff in assay [2] is 0.00013 s⁻¹.

B12: 16H7 variant with light chain substitution D95Y (antibody, human IgG4 S228P, lambda, V domains shown)
VH: not shown
VL: SYVLTQPPSVSVAPGQTARITCGGNNIGSESVHWYQQKPGQAPVLVVYDDSDRPSGIPERFSGSNSGNTATLTISRVEAGDEADYYCQVWDGNSYHVVFGGGTKLTVLG
notes: IgG4 backbone was used
With B12, the “Mean E max” value in assay [1] was 4%. Also, the koff in assay [2] was 0.00013 s⁻¹.

B13: 16H7 variant with light chain substitution H96G (antibody, human IgG4 S228P, lambda, V domains shown)
VH: not shown
VL: SYVLTQPPSVSVAPGQTARITCGGNNIGSESVHWYQQKPGQAPVLVVYDDSDRPSGIPERFSGSNSGNTATLTISRVEAGDEADYYCQVWDGNSDGVVFGGGTKLTVLG
notes: IgG4 backbone was used
B13: in assay [1], the “Mean E max” value worked out at 95% and the “Mean EC50” value was determined as 0.13 nM. In addition, the koff in assay [2] is 0.00015 s⁻¹.

B14: 16H7 variant with light chain substitution H96N (antibody, human IgG4 S228P, lambda, V domains shown)
VH: not shown
VL: SYVLTQPPSVSVAPGQTARITCGGNNIGSESVHWYQQKPGQAPVLVVYDDSDRPSGIPERFSGSNSGNTATLTISRVEAGDEADYYCQVWDGNSDNVVFGGGTKLTVLG
notes: IgG4 backbone was used
Regarding B14, in assay [1], the “Mean E max” value is 112% and the “Mean EC50” value came out at 0.143 nM. Further, the koff in assay [2] was determined as 4.4e-05 s⁻¹.

B15: 16H7 variant with light chain substitution D95I (antibody, human IgG4 S228P, lambda, V domains shown)
VH: not shown
VL: SYVLTQPPSVSVAPGQTARITCGGNNIGSESVHWYQQKPGQAPVLVVYDDSDRPSGIPERFSGSNSGNTATLTISRVEAGDEADYYCQVWDGNSIHVVFGGGTKLTVLG
notes: IgG4 backbone was used
B15: the “Mean E max” value in assay [1] came to 4%. For the same molecule, the koff in assay [2] is 0.00016 s⁻¹.

B16: 16H7 variant with light chain substitution H96K (antibody, human IgG4 S228P, lambda, V domains shown)
VH: not shown
VL: SYVLTQPPSVSVAPGQTARITCGGNNIGSESVHWYQQKPGQAPVLVVYDDSDRPSGIPERFSGSNSGNTATLTISRVEAGDEADYYCQVWDGNSDKVVFGGGTKLTVLG
notes: IgG4 backbone was used
Take B16: in assay [1], the “Mean E max” value turned out to be 98% and the “Mean EC50” value stood at 0.179 nM. In assay [2], the koff was 6.4e-05 s⁻¹.

B17: 16H7 variant with light chain substitution D95M (antibody, human IgG4 S228P, lambda, V domains shown)
VH: not shown
VL: SYVLTQPPSVSVAPGQTARITCGGNNIGSESVHWYQQKPGQAPVLVVYDDSDRPSGIPERFSGSNSGNTATLTISRVEAGDEADYYCQVWDGNSMHVVFGGGTKLTVLG
notes: IgG4 backbone was used
Consider B17, for which the “Mean E max” value in assay [1] amounted to 8%. This molecule also had a koff in assay [2] of 1.4e-05 s⁻¹.

B18: 16H7 variant with light chain substitution N93A (antibody, human IgG4 S228P, lambda, V domains shown)
VH: not shown
VL: SYVLTQPPSVSVAPGQTARITCGGNNIGSESVHWYQQKPGQAPVLVVYDDSDRPSGIPERFSGSNSGNTATLTISRVEAGDEADYYCQVWDGASDHVVFGGGTKLTVLG
notes: IgG4 backbone was used
As for B18, in assay [1], the “Mean E max” value was determined as 101% and the “Mean EC50” value was 0.108 nM. This molecule also gave an off-rate (koff) in assay [2] of 7.5e-06 s⁻¹.

B19: 16H7 variant with light chain substitution H96W (antibody, human IgG4 S228P, lambda, V domains shown)
VH: not shown
VL: SYVLTQPPSVSVAPGQTARITCGGNNIGSESVHWYQQKPGQAPVLVVYDDSDRPSGIPERFSGSNSGNTATLTISRVEAGDEADYYCQVWDGNSDWVVFGGGTKLTVLG
notes: IgG4 backbone was used
As for B19, in assay [1], the “Mean E max” value turned out to be 103% and the “Mean EC50” value came out at 0.155 nM. In assay [2], this molecule registered a dissociation rate constant (koff) of 0.00012 s⁻¹.

B20: 16H7 variant with light chain substitution H96R (antibody, human IgG4 S228P, lambda, V domains shown)
VH: not shown
VL: SYVLTQPPSVSVAPGQTARITCGGNNIGSESVHWYQQKPGQAPVLVVYDDSDRPSGIPERFSGSNSGNTATLTISRVEAGDEADYYCQVWDGNSDRVVFGGGTKLTVLG
notes: IgG4 backbone was used
B20: in assay [1], the “Mean E max” value amounted to 102% and the “Mean EC50” value came out at 0.095 nM. In addition, the koff in assay [2] was 0.00014 s⁻¹.

B21: 16H7 variant with light chain substitution H96Y (antibody, human IgG4 S228P, lambda, V domains shown)
VH: not shown
VL: SYVLTQPPSVSVAPGQTARITCGGNNIGSESVHWYQQKPGQAPVLVVYDDSDRPSGIPERFSGSNSGNTATLTISRVEAGDEADYYCQVWDGNSDYVVFGGGTKLTVLG
notes: IgG4 backbone was used
As for B21, in assay [1], the “Mean E max” value came out at 103% and the “Mean EC50” value was 0.134 nM. Further, in assay [2], the off-rate constant (koff) turned out to be 6.9e-05 s⁻¹.
